Consider two molecules from patent US5622930A, “C1 inhibitor muteins and uses thereof” (CLB, priority 1991, dated 1997).

The subject of the experiment is HNE. Nature of the experiment: inactivation of C1 inhibitor muteins by elastase (protease sensitivity). The experiment is classed as biochemical. To be noted: neutrophil elastase as the source of protease; compared to wild type C1 inhibitor. The text has this: FIG. 2 presents a generalized assay screening format for determining both the inhibitory (complex formation) or protease sensitivity (inactivation) of the C1 muteins. The latter measures inactivation of the C1 inhibitor muteins by non-target proteases. This procedure is also described by Eldering et al., 1988, in J. of Biological Chem., 263: 11776. Modifications of these methods are also known in the art.
Using similar approaches, the non-target protease sensitivity of the C1 inhibitor muteins may be determined. Numerous assays may be employed that measure the amount of intact C1 inhibitor mutein, or fragments that are derived from the muteins, remaining after exposure to protease. […] A solid phase assay is preferred whereby C1 inhibitor muteins are reacted with non-target protease bound to a solid matrix and the amount of proteolysis of the muteins measured by determining the amount of intact mutein remaining, or preferably by detecting fragments of the mutein.
An exemplary non-target protease that cleaves C1 is neutrophil elastase. Thus, this enzyme may be coupled to CNBr treated Sepharose 4B, and incubated with a C1 inhibitor mutein, and the presence of proteolytically cleaved C1 mutein monitored using a number of techniques. […] Subsequently, the amount of bound cleaved C1 inhibitor can be determined using a second radiolabelled antibody that recognizes the cleaved molecule. […]

B1: P5 -leu:P3 -ala: C1 inhibitor mutein with Leu at position 440 (P5) and Ala at position 442 (P3) (protein, UniProt P05155 23-500, looked up, variant I440L V442A)
Plasma protease C1 inhibitor: NPNATSSSSQDPESLQDRGEGKVATTVISKMLFVEPILEVSSLPTTNSTTNSATKITANTTDEPTTQPTTEPTTQPTIQPTQPTTQLPTDSPTQPTTGSFCPGPVTLCSDLESHSTEAVLGDALVDFSLKLYHAFSAMKKVETNMAFSPFSIASLLTQVLLGAGENTKTNLESILSYPKDFTCVHQALKGFTTKGVTSVSQIFHSPDLAIRDTFVNASRTLYSSSPRVLSNNSDANLELINTWVAKNTNNKISRLLDSLPSDTRLVLLNAIYLSAKWKTTFDPKKTRMEPFHFKNSVIKVPMMNSKKYPVAHFIDQTLKAKVGQLQLSHNLSLVILVPQNLKHRLEDMEQALSPSVFKAIMEKLEMSKFQPTLLTLPRIKVTTSQDMLSIMEKLEFFDFSYDLNLCGLTEDPDLQVSAMQHQTVLELTETGVEAAAASALSAARTLLVFEVQQPFLFVLWDQQHKFPVFMGRVYDPRA
Regarding B1, the susceptibility to inactivation result is on record as “significantly reduced susceptibility to inactivation”.

B2: P5 -leu:P3 -leu: C1 inhibitor mutein with Leu at position 440 (P5) and Leu at position 442 (P3) (protein, UniProt P05155 23-500, looked up, variant I440L V442L)
Plasma protease C1 inhibitor: NPNATSSSSQDPESLQDRGEGKVATTVISKMLFVEPILEVSSLPTTNSTTNSATKITANTTDEPTTQPTTEPTTQPTIQPTQPTTQLPTDSPTQPTTGSFCPGPVTLCSDLESHSTEAVLGDALVDFSLKLYHAFSAMKKVETNMAFSPFSIASLLTQVLLGAGENTKTNLESILSYPKDFTCVHQALKGFTTKGVTSVSQIFHSPDLAIRDTFVNASRTLYSSSPRVLSNNSDANLELINTWVAKNTNNKISRLLDSLPSDTRLVLLNAIYLSAKWKTTFDPKKTRMEPFHFKNSVIKVPMMNSKKYPVAHFIDQTLKAKVGQLQLSHNLSLVILVPQNLKHRLEDMEQALSPSVFKAIMEKLEMSKFQPTLLTLPRIKVTTSQDMLSIMEKLEFFDFSYDLNLCGLTEDPDLQVSAMQHQTVLELTETGVEAAAASALSLARTLLVFEVQQPFLFVLWDQQHKFPVFMGRVYDPRA
For B2, the susceptibility to inactivation entry is given as “significantly reduced susceptibility to inactivation”.
